Experimental data: PMC4309369 (Cell reports, 2014)
Numbering of substitutions follows the chain as printed. Names and notes keep the numbering of the source.

B1: GST-tagged MTDH (364–582) (domain or fragment, human, UniProt Q86UE4 364-582, looked up)
chain: YQWDVSRNQPYIDDEWSGLNGLSSADPNSDWNAPAEEWGNWVDEERASLLKSQEPIPDDQKVSDDDKEKGEGALPTGKSKKKKKKKKKQGEDNSTAQDTEELEKEIREDLPVNTSKTRPKQEKAFSLKTISTSDPAEVLVKNSQPIKTLPPATSTEPSVILSKSDSDKSSSQVPPILQETDKSKSNTKQNSVPPSQTKSETSWESPKQIKKKKKARRET
B2: GST-tagged MTDH (364–582) D389R (domain or fragment, human, UniProt Q86UE4 364-582, looked up)
chain: B1 chain with D26R
B3: GST-tagged MTDH (364–582) N395A (domain or fragment, human, UniProt Q86UE4 364-582, looked up)
chain: B1 chain with N32A
B4: GST-tagged MTDH (364–582) N403A (domain or fragment, human, UniProt Q86UE4 364-582, looked up)
chain: B1 chain with N40A
B5: GST-tagged MTDH (364–582) E400R (domain or fragment, human, UniProt Q86UE4 364-582, looked up)
chain: B1 chain with E37R
B6: GST-tagged MTDH (364–582) E400A (domain or fragment, human, UniProt Q86UE4 364-582, looked up)
chain: B1 chain with E37A

Legend:
SND1 (16–339) R316E = biological target: T1, SND1 (16–339) R316E (human, UniProt Q7KZF4 16-339, R316E); assay: pull-down
T1 sequence (looked up): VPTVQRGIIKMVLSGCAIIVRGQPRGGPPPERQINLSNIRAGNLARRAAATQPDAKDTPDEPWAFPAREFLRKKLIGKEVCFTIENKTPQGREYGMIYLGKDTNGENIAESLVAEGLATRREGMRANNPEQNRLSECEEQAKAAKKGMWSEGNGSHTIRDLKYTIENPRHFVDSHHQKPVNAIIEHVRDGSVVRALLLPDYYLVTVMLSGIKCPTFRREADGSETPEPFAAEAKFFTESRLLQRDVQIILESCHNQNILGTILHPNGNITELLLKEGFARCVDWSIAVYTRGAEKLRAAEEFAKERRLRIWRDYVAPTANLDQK

SND1 (16–339) R324A = biological target: T2, SND1 (16–339) R324A (human, UniProt Q7KZF4 16-339, R324A); assay: pull-down
T2 sequence (looked up): T1 sequence (looked up) with E301R, R309A

SND1 (16–339) R324E = biological target: T3, SND1 (16–339) R324E (human, UniProt Q7KZF4 16-339, R324E); assay: pull-down
T3 sequence (looked up): T1 sequence (looked up) with E301R, R309E

[1] = biological target: T4, SND1 SN1/2 domains (16–339) (human, UniProt Q7KZF4 16-339); assay: ITC
T4 sequence (looked up): T1 sequence (looked up) with E301R

[2] = biological target: T4, SND1 SN1/2 domains (16–339); assay: pull-down
[3] = biological target: T4, SND1 SN1/2 domains (16–339); assay: crystal structure

Binder | binding result [2] | also measured
B1 |  | binding result (SND1 (16–339) R316E): binds; binding result (SND1 (16–339) R324A): binds; binding result (SND1 (16–339) R324E): binds; Kd [1]: ~600 nM
B2 | binds | 
B3 | binds | 
B4 | binds | 
B5 | binds | 
B6 | binds | 
SSADPNSDWNAPAEEWGNWVDE (peptide, UniProt Q86UE4 386-407, looked up) [MTDH (386–407)] |  | binding result [3]: binds
